In the nanobody polyreactivity screen of Harvey et al. (2022):

assay: yeast display, Sf9 membrane polyspecificity reagent, FACS + sequencing; frameworks hold sequencing errors
Summary of the method: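 Galactose induction of a Saccharomyces cerevisiae BJ5465 synthetic nanobody display library ran 36–48 hours. The cells were then stained for 1 hour at 4 °C with 10% biotinylated, detergent-solubilized Sf9 membrane reagent, pulled down on streptavidin microbeads and FACS-sorted into low and high (top ~1%) gates on expression and reagent-binding fluorescence. Labels for polyreactivity follow the gate of origin.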

Sequence | polyreactivity (PSR sort gate)
QVQLVESGGGLVQAGGSLRLSCAASGSTLSKNAMGWYRQAPGKERELVAAMTRRGGSTSYADSVKGRFTMSRDYAKNTVYLQMNSLKPEDTAVYYCNAVSKYDYGYWGQGTQVTVSS | high polyreactivity
QVQLVESGGGLVQAGGSLRLSCAASGSTLSQNAMGWSRQAPGKEREFVADISGSGDSTYYADSVKGRITISRDNAKNTVYLQMNSLKPEDTAVYYCAAEELSHYEYWGKGTQVTVSS | low polyreactivity
QVQLVESGGGLVQAGGSLRLSCAASGSTLSSNAMGWYRQAPGKVWELVAAISYRGGSTYYADSVKGRFTISRDNAKNTVYLQMNSLKPEDTAVYYCAAYLGPYVRYYYWGQGTQVTVSS | high polyreactivity
QVQLVESGGGLVQAGGSLRLSCAASGSTLSYNAMGWYRQAPGKERELVAAISWSDGGTYYADSVKGRFTISRDTAKNTVFLQMNSLKPEDTAVYYCAARRGVRYSKFGYYYWGQGTQVTVSS | high polyreactivity
QVQLVESGGGLVQAGGSLRLSCAASGSTLTPNAMGWYRQAPGKERELVAAISRSGGSTYYADSVKGRFTISRDNAKNTVYLQRNSLKPEDTAVYYCRGYYIGIRAYGYWGQGTQVTVSS | high polyreactivity
QVQLVESGGGLVQAGGSLRLSCAASGSTLTYNAMGWYRQAPGKERELVADITS | low polyreactivity
QVQLVESGGGLVQAGGSLRLSCAASGSTLTYYVMGWSRQAPGKERELVAAITDSGGGTYYADSVKGRFTISRDNAKNTVYLQMNSLKPEDTAVYYCNAYYPYGLASFYYWGQGTQVTVSS | low polyreactivity
QVQLVESGGGLVQAGGSLRLSCAASGSTLVANAMGWYRQAPGKERELVAAISSGGITYYADSVKGRFTISRDNAKNTVYLQMHSLKPEDTAVYYCAARIRGTWKYGYWGQGTQVTVSS | low polyreactivity
QVQLVESGGGLVQAGGSLRLSCAASGSTLVFSAMGWYRQAPGKERELVAAITRSGGSTYYADSVKGRFTITRDNAKNTVYLQMNSLKPEDTAVYYCAADERYIYERDSWGQGTQVSVSS | low polyreactivity
QVQLVESGGGLVQAGGSLRLSCAASGSTLVGYVMGWYRQAPGKERELVAAITTVGSTYYADSVKGRFTISRDNAKNTVYLQMNSLKPEDTAVYYCNAVRAYVDLRTGHFRGDYWGQGTQVTVSS | low polyreactivity
QVQLVESGGGLVQAGGSLRLSCAASGSTLVLNAMGWYRQAPGKERELVAAISRGGGSTSYADSVKGRFTISRDNAKNTVYLQMNSLKPEDTAVYYCNAYTYYHANHEQGFGYWGQGTQVTVSS | low polyreactivity
QVQLVESGGGLVQAGGSLRLSCAASGSTLVLNAMGWYRQAPGKERELVAAITISGDTTYYADSVKGRFTISRDNAKNTVYLQMNSLKPEDTAVYYCAVDSFLVYSAVRPYDYWGQGTQVTVSS | low polyreactivity
QVQLVESGGGLVQAGGSLRLSCAASGSTLVSNAMGWYIQAPGKEREFVAAINSSGSRTYYADSVKGRFTISRDNANNTVYLQMNSLKPEDTAVYYCAAGYWNDFDWGQVTQVTVSS | low polyreactivity
QVQLVESGGGLVQAGGSLRLSCAASGSTLVWNAMGWYRQAPGKERELVAGITTSGGSTSYADSVKGRFTISRDNAKNTVYLQMNSLKQEDTAVYYCAVDAAIYTNKLDYWGQGTQVTVSS | low polyreactivity
QVQLVESGGGLVQAGGSLRLSCAASGSTLWFNAMGWYRQAPGKERELVAAINWSGGSTYYADSVKGRFTISRDNAKNTVYLQMNSLKPEDTAVYYCAAVYQYVHYVWYDYWGQGTQVTVSS | low polyreactivity
QVQLVESGGGLVQAGGSLRLSCAASGSTLWGYVMGWYRQAPGKERELVAVISKSGGSTYYADSVKGRFTISRDNANNTVYLQMNSLKPEDTAVYYCATRWPYRSDWGQGTQVTVSS | high polyreactivity

Sequence | polyreactivity (PSR sort gate)
QVQLVESGGGLVQAGGSLRLSCAASGSTLWRYAMGWYRQAPGKERELVAGISRGGGSTYYADSVKGRFTISRDNANKTVYLQKNSLKPEDTAVYYCAADDPLYSISTGDYWGQGTQVTVSL | low polyreactivity
QVQLVESGGGLVQAGGSLRLSCAASGSTLWVYAMGSYRQAPGKERELVAAITQSTGDTHYADSVKGRFTISRDNAKNTVYLQMNSLKPEDTAVYYCAADSYLSVYDPYGYWGQGTQVTVSS | low polyreactivity
QVQLVESGGGLVQAGGSLRLSCAASGSTLWYYAMGWYRQAPGKERELVADITSSGNTNYADSVKGRFTISRDNAKNTVYLQMNSLKPEDTAVYYCAADSANYQWYLSWQKDDYWGQGTQVTVSS | low polyreactivity
QVQLVESGGGLVQAGGSLRLSCAASGSTLYFNAMGWYRQAPGKERELVATITSGGSTYYADSVKGRFTISRDNAKNTVYFQMNSLKPEDTAVYYCNADFGSYATNGMTPLYDYWGQGTQVTVSS | high polyreactivity
QVQLVESGGGLVQAGGSLRLSCAASGSTLYKYAMGWYRQAPGKERELVATITRTDSTNYADSVKGRFTISRDNAKNTVYLQMNSLKPEDTAVYYCNRGFDWWYRYRHYDYWGQGTQVTVSS | low polyreactivity
QVQLVESGGGLVQAGGSLRLSCAASGSTLYPNAMGWYRQAPGKERELVAAIRRRGGSTYYADSVKGRFTISRDNAKNTVYLQMNSLKPEDTAVYYCAAYPYKQDPTLVHYDYWGQGTQVTVSS | low polyreactivity
QVQLVESGGGLVQAGGSLRLSCAASGSTLYPYDMGWYRQAPGKERELVAAIDSGGSTNYADSVKGRFTISRDNAKNTVYLQMNSLKPEDTAVYYCAADASGENDYWGQGTQVTVSS | low polyreactivity
QVQLVESGGGLVQAGGSLRLSCAASGSTLYPYDMGWYRQAPGKERELVAAIDSGGSTNYADSVKGRFTISRDNAKNTVYLQMNSLKPEDTAVYYCATEILTAARDTVVYQFYLGYYYWGQGTQVTVSS | low polyreactivity
QVQLVESGGGLVQAGGSLRLSCAASGSTLYQYAMGWYRQAPGKERELVAAITKSGGRTYYADSVKGRFTISRDNAKNTVYLQMNSLKPEDTAVYYCNVVRGSYSSGGDYWGQGTQVTVSA | high polyreactivity
QVQLVESGGGLVQAGGSLRLSCAASGSTLYSYAMGWYRQAPGKERELVAAISIGGRTYYADSVKGRFTISRDNAKNTVYLQMNSLKPEDTAVYYCNKYYGPRTYLSAQGRSYGYWGQGTQVTVSS | high polyreactivity
QVQLVESGGGLVQAGGSLRLSCAASGSTLYTYAMGWYRQAPGKERELVAAISYTGGRTYYADSVKGRFTISRDNAKNTVYLQMNSLKPEDTAVYYCAARFKSVGYDYWGQGTQVTVSS | high polyreactivity
QVQLVESGGGLVQAGGSLRLSCAASGSTLYTYDMGWYRQAPGKERELVASISGSDGSTYYADSVKGRFTISRDNAKNTVYLQMNSLKPEDTAVYYCAVDSYQTGVYFYYVYWDFDLGYWGQGTQVTVSS | low polyreactivity
QVQLVESGGGLVQAGGSLRLSCAASGSTLYWNAMGWYRQAPGKERELVADISSTGRTYYADSVKGRFTISRDNAKNTVYLQMNSLKPEDTAVYYCNADYFFEFDYWGQGTQVTVSS | low polyreactivity
QVQLVESGGGLVQAGGSLRLSCAASGSTLYYNAMGWYRQAPGKERELVAAISWSGGSTYYADSVKGRFTISRDNAKNTVYLQMNSLKPEDTAVYYCAAELSSYYDYDYWGQGTQVTVSS | low polyreactivity
QVQLVESGGGLVQAGGSLRLSCAASGSTLYYNAMGWYRQAPGKERELVAAITSGGSTSYADSVKGRFTISRDNAKNTVYLQMNSLKPEDTAVSSCAAVFYRRFDYWGQGTQVTVSS | low polyreactivity
QVQLVESGGGLVQAGGSLRLSCAASGSTLYYYAMGWYRQAPGKERELVASITGSGGNTYYADSVKGRFTISRDNAKNTVYLQMNSLKPEDTAVYYCAKRHFYRHGAYGYWGQGTQVTVSS | high polyreactivity
